Test in all cases: SPR
The target in experiment [1] is T1, FcgRIIb (human, UniProt P31994).
T1 chain: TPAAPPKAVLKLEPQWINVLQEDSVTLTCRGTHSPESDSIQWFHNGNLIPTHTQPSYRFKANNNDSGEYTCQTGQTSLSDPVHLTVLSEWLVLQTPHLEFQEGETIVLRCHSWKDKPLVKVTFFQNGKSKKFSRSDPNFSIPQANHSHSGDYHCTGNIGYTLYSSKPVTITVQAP

Experiment [2] has as its target T2, FcgRIIa H (human, UniProt P12318).
T2 chain: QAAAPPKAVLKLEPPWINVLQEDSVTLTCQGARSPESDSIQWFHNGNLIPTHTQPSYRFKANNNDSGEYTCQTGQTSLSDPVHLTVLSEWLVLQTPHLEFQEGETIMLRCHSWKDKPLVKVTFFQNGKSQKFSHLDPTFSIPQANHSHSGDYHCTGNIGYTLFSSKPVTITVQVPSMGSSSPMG

The target in experiment [3] is T3, FcgRIa (human, UniProt P12314).
T3 chain: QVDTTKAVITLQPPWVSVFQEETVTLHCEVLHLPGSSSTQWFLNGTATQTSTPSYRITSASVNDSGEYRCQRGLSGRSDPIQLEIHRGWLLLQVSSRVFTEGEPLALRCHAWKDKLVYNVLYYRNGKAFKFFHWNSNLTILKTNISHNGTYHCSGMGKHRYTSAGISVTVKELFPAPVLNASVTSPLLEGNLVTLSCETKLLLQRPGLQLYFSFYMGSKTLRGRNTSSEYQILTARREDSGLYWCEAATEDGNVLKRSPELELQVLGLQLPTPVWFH

The target in experiment [4] is T4, FcgRIIIa F (human, UniProt P08637).
T4 sequence (P08637 17-208): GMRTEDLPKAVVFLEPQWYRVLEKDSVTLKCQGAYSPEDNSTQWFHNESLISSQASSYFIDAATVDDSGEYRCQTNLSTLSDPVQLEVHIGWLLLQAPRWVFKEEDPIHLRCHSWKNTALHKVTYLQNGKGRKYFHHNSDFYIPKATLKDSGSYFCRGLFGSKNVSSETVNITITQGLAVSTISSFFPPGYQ
In experiment [5] the target is T5, FcgRIIa R (human, UniProt P12318).
T5 chain: T2 chain with H134R

Experiment [6] addresses T6, FcgRIIIa V (human, UniProt P08637).
Experiment [7] has as its target T4, FcgRIIIa F. The source holds these as a separate data set.
Experiment [8] addresses T6, FcgRIIIa V. The source holds these as a separate data set.
For experiment [9], the target named is T3, FcgRIa.
Experiment [10] has as its target T2, FcgRIIa H.
For experiment [11], the target named is T6, FcgRIIIa V. The source holds these as a separate data set.
Experiment [12] deals with T4, FcgRIIIa F. The source holds these as a separate data set.
For experiment [13], the target named is T5, FcgRIIa R.
The target of experiment [14] is T1, FcgRIIb.
The target in experiment [15] is T5, FcgRIIa R.
The target of experiment [16] is T6, FcgRIIIa V. The source holds these as a separate data set.
Experiment [17] deals with T2, FcgRIIa H.
For experiment [18], the target named is T1, FcgRIIb.
Experiment [19] deals with T3, FcgRIa.
In experiment [20] the target is T4, FcgRIIIa F. This is another data set of the same source.

Substitutions are numbered along the chain they refer to. In names and notes the source's numbering stands. Several values for one entry are separate records, joined by “and”; a condition that tells them apart may be missing. Equal entries are not always repeated. Where two headings read alike, the source gives them in different places.

The text below walks through data of patent US10766960 (dated 2020).

T6 sequence (P08637 17-208 F176V): as the sequence (P08637 17-208) above, with F160V counted along it

B1: H240-Kn225/H240-Hl076/L73-k0 (antibody)
chain 1: QDQLVQSGAEVKKPGASVKVSCKASGFNIKDTYIQWVRQAPGQGLEWMGRIDPLRKQTKYREKFEGRVTITADTSTNTAYMELSSLRSEDTAVYYCVRSGREFDYWGQGTLVTVSSASTKGPSVFPLAPSSKSTSGGTAALGCLVKDYFPEPVTVSWNSGALTSGVHTFPAVLQSSGLYSLSSVVTVPSSSLGTQTYICNVNHKPSNTKVDKKVEPKSCDKTHTCPPCPAPEYQWGPIVFLFPPKPKDTLMISRTPEVTCVVVDVSDEEPEVKFNWYVDGVEVHNAKTKPREEQYNATYRVVSVLTVLHQDWLNGKEYKCKVSNKALPAPIEKTISKAKGQPREPQVCTLPPSRDELTKNQVSLWCLVKGFYPSDIAVEWESNGQPENNYKTTPPVLDSDGSFFLYSKLTVDKSRWQQGNVFSCSVMHEALHNHYTQKSLSLSP
chain 2: QDQLVQSGAEVKKPGASVKVSCKASGFNIKDTYIQWVRQAPGQGLEWMGRIDPLRKQTKYREKFEGRVTITADTSTNTAYMELSSLRSEDTAVYYCVRSGREFDYWGQGTLVTVSSASTKGPSVFPLAPSSKSTSGGTAALGCLVKDYFPEPVTVSWNSGALTSGVHTFPAVLQSSGLYSLSSVVTVPSSSLGTQTYICNVNHKPSNTKVDKKVEPKSCDKTHTCPPCPAPELLGGPSVFLFPPKPKDTLMISRTPEVTCVVVDVSHEEPEVKFNWYVDGVEVHNAKTKPREEQYNSTYRVVSVLTVLHQDWLNGKEYKCKVSNDALPMPIEETISKAKGQPREPQVYTLPPSRCELTKNQVSLSCAVKGFYPSDIAVEWESNGQPENNYKTTPPVLDSDGSFFLVSKLTVDKSRWQQGNVFSCSVMHEALHNHYTQKSLSLSP
chain 3: DIQMTQSPSSLSASVGDRVTITCRASQDIHKYIAWYQQKPGQAPRLLIQYTSTLQPGVPSRFSGSGSGTDYTFTISSLQPEDIATYYCLQYEQLRTFGGGTKVEIKRTVAAPSVFIFPPSDEQLKSGTASVVCLLNNFYPREAKVQWKVDNALQSGNSQESVTEQDSKDSTYSLSSTLTLSKADYEKHKVYACEVTHQGLSSPVTKSFNRGEC
Turning to B1, the Kd with FcgRIIb [1] was found to be 5200 nM; in the experiment with FcgRIIa H [2], 170 nM; in the experiment with FcgRIa [3], 0.036 nM; with FcgRIIIa F [4], 1.1 nM; with FcgRIIa R [5], 490 nM; in the experiment with FcgRIIIa V [6] it was 0.19 nM.

B2: H240-AK072/L73-k0 (antibody)
chain 1: B1 chain 1 with Q234Y, I238S, C348Y, D355K, L357M, W365T, H434R
chain 2: B1 chain 3
With B2, the Kd with FcgRIIIa F [7] turned out to be 300 nM; in the experiment with FcgRIIIa V [8] it was 29 nM.

B3: H240-BH076/L73-k0 (antibody)
chain 1: B1 chain 2 with C355E, L357M, S365T, A367L, V406Y, K438E
chain 2: B1 chain 3
Regarding B3, the Kd was 26 nM with FcgRIIIa F [7] and 5.3 nM with FcgRIIIa V [8].

B4: H240-A5E/H240-B3E/L73-k0 (antibody)
chain 1: not shown
chain 2: not shown
chain 3: B1 chain 3
With B4, the Kd with FcgRIa [9] is 0.61 nM; with FcgRIIa H [10] it was 910 nM; with FcgRIIIa V [11], 330 nM; with FcgRIIIa F [12], 1600 nM; with FcgRIIa R [13] it was 940 nM; with FcgRIIb [14], 4300 nM.

B5: H240-AK072/H240-BH076/L73-k0 (antibody)
chain 1: B1 chain 1 with Q234Y, I238S, C348Y, D355K, L357M, W365T, H434R
chain 2: B1 chain 2 with C355E, L357M, S365T, A367L, V406Y, K438E
chain 3: B1 chain 3
Take B5: the dissociation constant Kd with FcgRIIa R [15] was 240 nM and 280 nM; in the experiment with FcgRIa [9], 0.24 nM; with FcgRIIIa V [16] it was 0.99 nM and 1.2 nM; with FcgRIIa H [17], 79 nM and 72 nM and 69 nM; with FcgRIIa H [10], 130 nM; with FcgRIIb [18], 1300 nM and 1400 nM and 1500 nM. In addition, the Kd with FcgRIa [19] was 0.11 nM and 0.12 nM; with FcgRIIIa F [20], 3.7 nM and 2.9 nM; with FcgRIIIa V [11], 0.98 nM; with FcgRIIIa F [12], 3.7 nM; with FcgRIIa R [13], 460 nM; with FcgRIIb [14], 2900 nM.

In general, Kd refers to the concentration at which binding is half-saturated.
